We go through twelve molecules from patent US20160251440A1 (Ablynx, published 2016).

Assay [1] concerns the target T1, recombinant human CEACAM5 (human, UniProt P06731 35-685).
T1 construct: also called hCEACAM-5; R&D Systems 4128-CM
T1 sequence (looked up): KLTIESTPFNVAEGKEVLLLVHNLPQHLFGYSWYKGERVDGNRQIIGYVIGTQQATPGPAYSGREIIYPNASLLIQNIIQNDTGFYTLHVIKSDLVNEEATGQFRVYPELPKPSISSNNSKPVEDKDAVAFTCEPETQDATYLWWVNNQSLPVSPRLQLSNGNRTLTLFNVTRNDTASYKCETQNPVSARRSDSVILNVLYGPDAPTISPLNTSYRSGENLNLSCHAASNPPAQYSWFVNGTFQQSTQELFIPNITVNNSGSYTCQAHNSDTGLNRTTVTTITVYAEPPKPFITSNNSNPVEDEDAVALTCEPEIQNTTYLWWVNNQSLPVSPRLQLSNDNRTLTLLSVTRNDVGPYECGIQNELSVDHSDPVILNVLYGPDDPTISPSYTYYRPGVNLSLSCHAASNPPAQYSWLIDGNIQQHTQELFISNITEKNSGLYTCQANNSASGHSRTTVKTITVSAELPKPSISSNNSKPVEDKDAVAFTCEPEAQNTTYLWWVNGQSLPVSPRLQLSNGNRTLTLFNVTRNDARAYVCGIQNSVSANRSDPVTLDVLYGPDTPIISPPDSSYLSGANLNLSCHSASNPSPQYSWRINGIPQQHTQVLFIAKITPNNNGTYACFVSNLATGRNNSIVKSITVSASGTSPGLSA
The assay can be described thus: SPR Biacore T100, immobilised hCEACAM-5.

For assay [2], the target named is T2, human IL12Rβ1, cell-expressed (human, UniProt P42701 24-662).
T2 construct: whole, on cells; in the context of the heterodimeric receptor; also called IL12Rb1
In words: flow cytometry on isolated CD8+ T cells of donor D863, anti-Flag detection.

Assay [3] concerns the target human CXCR4 (on cells, viral lipoparticles or membrane extracts) (human, UniProt P61073 1-352). The assay can be described thus: cell-based or functional assay.
For assay [4], the target named is T3, recombinant IL-3Rα ectodomain (human, UniProt P26951 19-305).
T3 construct: extracellular domain; also called recombinant IL-3Ra; biotinylated-IL-3Rα ectodomain
T3 sequence (looked up): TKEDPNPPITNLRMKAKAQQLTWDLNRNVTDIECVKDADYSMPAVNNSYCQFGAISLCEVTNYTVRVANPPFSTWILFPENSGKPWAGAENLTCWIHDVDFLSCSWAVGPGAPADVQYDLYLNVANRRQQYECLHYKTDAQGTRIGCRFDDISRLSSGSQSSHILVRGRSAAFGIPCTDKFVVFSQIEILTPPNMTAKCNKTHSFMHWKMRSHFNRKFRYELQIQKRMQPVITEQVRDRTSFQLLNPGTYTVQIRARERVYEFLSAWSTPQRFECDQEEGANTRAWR
The assay can be described thus: ELISA on recombinant IL-3Ra ectodomain (lower right panel). A general note: An ELISA detects its analyte on a solid surface through an enzyme-linked reagent.

Assay [5] concerns the target T3, recombinant IL-3Rα ectodomain. The assay can be described thus: competition ELISA, coated mAb 7G3 + biotinylated IL-3Rα ectodomain.
The target in assay [6] is T4, human IL-3Rα (CD123), cell-expressed (human, UniProt P26951 19-378).
T4 construct: whole, on cells; also called IL-3Ra; Hek-IL-3Rα
The assay can be described thus: flow cytometry on Molm-13 cells; EC50(M) printed in the legend box beside the curves. (In flow cytometry, cells or beads pass a laser one at a time.)

The target of assay [7] is T4, human IL-3Rα (CD123), cell-expressed. The assay can be described thus: FACS, MOLM-13 cells.
The target of assay [8] is T3, recombinant IL-3Rα ectodomain. In words: SPR ProteOn, immobilised IL-3Rα ectodomain.
The target in assay [9] is CXCR4 and CD4 co-expressed on cells (MOLM-13, THP-1, MT-4, PBMC; Jurkat CD4 low) (human, UniProt P61073 1-352; P01730 26-458). In words: cell-based or functional assay.
Chain of CXCR4 and CD4 co-expressed on cells (MOLM-13, THP-1, MT-4, PBMC; Jurkat CD4 low) (P61073 whole entry, chain 1 of 2, other chains not shown): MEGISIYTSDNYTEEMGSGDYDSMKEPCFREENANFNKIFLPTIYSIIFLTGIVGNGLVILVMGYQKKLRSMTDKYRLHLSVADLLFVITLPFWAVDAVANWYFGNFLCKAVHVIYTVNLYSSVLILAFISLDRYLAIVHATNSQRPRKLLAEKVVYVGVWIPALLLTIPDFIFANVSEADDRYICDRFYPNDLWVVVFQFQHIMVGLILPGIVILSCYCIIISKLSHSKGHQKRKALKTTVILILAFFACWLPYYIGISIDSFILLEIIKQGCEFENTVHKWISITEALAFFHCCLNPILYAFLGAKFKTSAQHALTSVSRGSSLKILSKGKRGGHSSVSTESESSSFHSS

Chain of human CXCR4 (on cells, viral lipoparticles or membrane extracts) (P61073 whole entry, the tested form may be a part): as the sequence (P61073 whole entry, chain 1 of 2, other chains not shown) above
T4 sequence (P26951 19-378): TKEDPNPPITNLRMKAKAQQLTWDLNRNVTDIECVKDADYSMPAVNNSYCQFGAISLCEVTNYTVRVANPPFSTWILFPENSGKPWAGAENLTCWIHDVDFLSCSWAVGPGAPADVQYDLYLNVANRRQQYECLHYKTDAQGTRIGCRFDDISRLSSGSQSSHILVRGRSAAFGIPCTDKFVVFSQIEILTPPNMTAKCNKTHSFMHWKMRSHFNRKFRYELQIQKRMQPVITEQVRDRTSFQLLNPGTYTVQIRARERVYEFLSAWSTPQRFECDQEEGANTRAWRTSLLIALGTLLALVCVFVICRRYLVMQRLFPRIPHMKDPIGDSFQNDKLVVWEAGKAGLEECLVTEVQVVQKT

B1: CEA#2 (VHH)
VHH: EVQLVESGGGLVQPGGSLRLSCAASGDTYGSYWMGWFRQAPGQGLEAVAAINRGGGYTVYADSVKGRFTISRDNSKNTLYLQMNSLRAEDTAVYYCAASGVLGGLHEDWFNYWGQGTLVTVSS
notes: also called T023200002; humanised variant of NbCEA5
B1: in assay [1], the Kd came out at 1.9 nM, the off-rate (koff) turned out to be 0.0025 s⁻¹ and the kon turned out to be 1.3e+06 M⁻¹ s⁻¹.

B2: cAbLys3 (VHH)
VHH: DVQLQASGGGSVQAGGSLRLSCAASGYTIGPYCMGWFRQAPGKEREGVAAINMGGGITYYADSVKGRFTISQDNAKNTVYLLMNSLEPEDTAIYYCAADSTIYASYYECGHGLSTGGYGYDSWGQGTQVTVSS
notes: also called irrelevant control Nanobody directed to lysozyme
As to B2, in assay [2], the binding result is “no binding (tested: 250 nM)”.

B3: 57A07-35GS-14D09 (bispecific antibody)
chain: EVQLVESGGGLVQAGGSLRLSCAASGSIFSGNVMGWYRRQAPGKEREWVAAIASGGSIYYRDSVKGRFTISRDNAKNTVYLQMNSLKPEDTAVYYCNSHPPTLPYWGQGTLVTVSSGGGGSGGGGSGGGGSGGGGSGGGGSGGGGSGGGGSEVQLVESGGGLVQAGGSLRLSCVASGISSSKRNMGWYRQAPGKQRESVATISSGGNKDYTDAVKDRFTISRDTTKNTVYLQMNSLKPEDTAVYYCKIEAGTGWATRRGYTYWGQGTLVTVSS
notes: FLAG3-His6 also made; also called CD123#1-CXCR4#1; 57A07-14D09
With B3, in assay [3], the “Fold inc. vs CXCR4#1, Jurkat E6-1” value came out at 0.05 fold and the “IC50, CXCL-12 chemotaxis, Jurkat E6-1” value turned out to be 210 nM. Further, in [4], the “EC50 (read off the curve)” value is approximately 0.5 nM.

B4: 55B04 (VHH)
VHH: EVQLVESGGGLVQPGGSLRLSCAASGINFRFNSMGWWRRRAPGKEREWVAAITSGDITNYRDSVRGRFTISRDNVKNTVYLQMNTLKLEDTAVYYCNTFPPIADYWGLGTQVTVSS
In the case of B4, in assay [5], the IC50 was determined as 55 nM. The EC50 in assay [6] was determined as 1300 nM. Further, the response in [7] was half-maximal at 51.2 nM (EC50). In assay [8], the Kd stood at 15.8 nM, the koff worked out at 0.00794 s⁻¹ and the kon is 504000 M⁻¹ s⁻¹.

B5: 55C05 (VHH)
VHH: EVQLVESGGGLVPAGDSLRLSCVASGRSLNTYTMGWFRQAPGKECEFVAAINWNGVYRDYADSAKGRFTASRDNAMNTVFLQMNSLKPEDTAVYFCATATQGWDRHTEPSDFGSWGLGTQVTVSS
As to B5, in [5], the IC50 turned out to be 190 nM. The molecule also came in with a half-maximal effective concentration (EC50) in assay [6] of 4100 nM. The molecule further came in with an EC50 in [7] of 31.2 nM. For the same molecule, in [8], the Kd is 59 nM, the koff worked out at 0.00741 s⁻¹ and the kon was 126000 M⁻¹ s⁻¹.

B6: 03F11-9GS-281F12 (bispecific antibody)
chain: EVQLVESGGGSVQPGGSLTLSCGTSGRTFNVMGWFRQAPGKEREFVAAVRWSSTGIYYTQYADSVKSRFTISRDNAKNTVYLEMNSLKPEDTAVYYCAADTYNSNPARWDGYDFRGQGTQVTVSSGGGGSGGGGSEVQLVESGGGLVQAGDSLRLSCAASGRAFSRYAMGWFRQAPGKEREFVAAIGWGPSKTNYADSVKGRFTISRDNAKNTVYLQMNTLKPEDTAVYSCAAKFVNTDSTWSRSEMYTYWGQGTQVTVSS
Consider B6, for which, in assay [9], the “IC50, HIV-1 BaL (R5), PBMC” value was more than 666 nM; the “IC50, HIV-1 NL4.3 (X4), MT-4” value was 14.9 nM; the “IC50, HIV-1 NL4.3 (X4), PBMC” value is 17 nM; the “IC50, HIV-1 NL4.3 (X4), U87” value was more than 3330 nM.

B7: 03F11-25GS-281F12 (bispecific antibody)
chain: EVQLVESGGGSVQPGGSLTLSCGTSGRTFNVMGWFRQAPGKEREFVAAVRWSSTGIYYTQYADSVKSRFTISRDNAKNTVYLEMNSLKPEDTAVYYCAADTYNSNPARWDGYDFRGQGTQVTVSSGGGGSGGGGSGGGGSGGGGSGGGGSEVQLVESGGGLVQAGDSLRLSCAASGRAFSRYAMGWFRQAPGKEREFVAAIGWGPSKTNYADSVKGRFTISRDNAKNTVYLQMNTLKPEDTAVYSCAAKFVNTDSTWSRSEMYTYWGQGTQVTVSS
With B7, in assay [9], the “IC50, HIV-1 BaL (R5), PBMC” value is 383 nM; the “IC50, HIV-1 NL4.3 (X4), MT-4” value was 9.22 nM; the “IC50, HIV-1 NL4.3 (X4), PBMC” value came to 8.67 nM; the “IC50, HIV-1 NL4.3 (X4), U87” value is more than 3330 nM.

B8: 281F12-35GS-57A07 (bispecific antibody)
chain: EVQLVESGGGLVQAGDSLRLSCAASGRAFSRYAMGWFRQAPGKEREFVAAIGWGPSKTNYADSVKGRFTISRDNAKNTVYLQMNTLKPEDTAVYSCAAKFVNTDSTWSRSEMYTYWGQGTLVTVSSGGGGSGGGGSGGGGSGGGGSGGGGSGGGGSGGGGSEVQLVESGGGLVQAGGSLRLSCAASGSIFSGNVMGWYRRQAPGKEREWVAAIASGGSIYYRDSVKGRFTISRDNAKNTVYLQMNSLKPEDTAVYYCNSHPPTLPYWGQGTLVTVSS
notes: FLAG3-His6 also made; also called CXCR4#2-CD123#1; 281F12-57A07
In the case of B8, in [3], the “Fold inc. vs CXCR4#2, Jurkat E6-1” value was found to be 2.55 fold; the “Fold inc. vs CXCR4#2, MOLM-13” value amounted to 12.6 fold; the “IC50, CXCL-12 chemotaxis, Jurkat E6-1” value turned out to be 38 nM; the “IC50, CXCL-12 chemotaxis, MOLM-13” value stood at 6.83 nM. The “EC50 (read off the curve)” value in assay [4] is approximately 0.5 nM.

B9: 55F03 (VHH)
VHH: EVQLVESGGGLVQAGGPLRLSCAASGRTFSSYVMGWFRQAPGKEREFVAAIYWSNGKTQYTDSVKGRFTISGDNAKNTVYLQMNSLNPEDTAVYYCVADKDETGFRTLPIAYDYWGLGTQVTVSS
In assay [6], B9 registered an EC50 of 350 nM. The half-maximal effective concentration (EC50) in assay [7] came to 113 nM. In addition, in [8], the Kd is 115 nM, the koff stood at 0.00487 s⁻¹ and the kon is 42500 M⁻¹ s⁻¹.

B10: 50F07 (VHH)
VHH: EVQLVESGGGLVQPGGSLRLSCTGSGSTFSINAMGWYRQAPGKQRELVAAITSGGRTNYADSVKGRFTISRDNSKNTVYLQMNSLRPEDTAVYYCNARISAGTAFWLWSDYEYWGLGTLVTVSS
For B10, the IC50 in [5] was 230 nM. Further, the EC50 in [6] amounted to 66 nM. Further, in [7], it took 14.6 nM to reach a half-maximal effect (EC50). In assay [8], the Kd was 74.2 nM, the koff amounted to 0.00758 s⁻¹ and the kon stood at 102000 M⁻¹ s⁻¹.

B11: 14D09-35GS-57A07 (bispecific antibody)
chain: EVQLVESGGGLVQAGGSLRLSCVASGISSSKRNMGWYRQAPGKQRESVATISSGGNKDYTDAVKDRFTISRDTTKNTVYLQMNSLKPEDTAVYYCKIEAGTGWATRRGYTYWGQGTLVTVSSGGGGSGGGGSGGGGSGGGGSGGGGSGGGGSGGGGSEVQLVESGGGLVQAGGSLRLSCAASGSIFSGNVMGWYRRQAPGKEREWVAAIASGGSIYYRDSVKGRFTISRDNAKNTVYLQMNSLKPEDTAVYYCNSHPPTLPYWGQGTLVTVSS
notes: also made with FLAG3-His6 in Pichia; also called CXCR4#1-CD123#1; 14D09-57A07
B11: in assay [3], the “Fold inc. vs CXCR4#1, Jurkat E6-1” value was 0.69 fold; the “Fold inc. vs CXCR4#1, MOLM-13” value was 2.39 fold; the “IC50, CXCL-12 chemotaxis, Jurkat E6-1” value worked out at 15 nM; the “IC50, CXCL-12 chemotaxis, MOLM-13” value came out at 3.6 nM. Moreover, the “EC50 (read off the curve)” value in assay [4] was approximately 0.5 nM.

B12: 51D09 (VHH)
VHH: EVQLVESGGGLVQPGGSLRLSCAASGSIFSGNTMGWYRQAPGKQRELVAAISSGGSTDYADSVKGRFTISRDNSKNTVYLQMNSLRPEDTAVYYCNAAILLYRLYGYEEGDYWGLGTLVTVSS
Molecule B12 had a concentration giving a half-maximal response (EC50) in [6] of 16 nM. In addition, in assay [7], the EC50 amounted to 15.3 nM. In [8], the Kd was 13.6 nM, the koff was found to be 0.000516 s⁻¹ and the kon was 37800 M⁻¹ s⁻¹.

Broadly, the Kd is a measure of binding affinity in units of concentration. Broadly, the koff is the rate constant with which the complex falls apart. The term kon denotes the rate constant with which the complex forms. What is called EC50 (read off the curve) is the midpoint of the concentration-response curve. Broadly, the IC50 is the concentration needed to halve the response being measured. What is called EC50 is the concentration giving half of the maximal effect. Read a low EC50 as an effect from little substance.
